97 variants from the supplement of paper PMC10567573 can be followed below.

The labels stand for the following.
B1: ALKBH7 (parent)
chain: SVICRSLPEGMGPGESGQPPPAC
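Also: lentivirally expressed fusions sorted by FACS into six bins by GFP to DsRed ratio, PSI derived from sequencing read proportions per bin multiplied by bin number.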

In the series the parent is B1. The experiment in a line: protein stability index of a GFP-peptide fusion (GPS, HEK-293T) (PSI 1-6); higher = more stable. To be noted: c terminus: native.
In the case of SVICFSLPEGMGPGESGQPPPAC, the protein stability index stood at 1.51.
The same measure for SVICQSLPEGMGPGESGQPPPAC: 2.04; for SVICNSLPEGMGPGESGQPPPAC: 1.7; for SVICDSLPEGMGPGESGQPPPAC: 2.56.
SVICKSLPEGMGPGESGQPPPAC: the protein stability index was 2.32.
The same measure for SVICCSLPEGMGPGESGQPPPAC: 2.28; for SVICMSLPEGMGPGESGQPPPAC: 1.8.
Turning to SVICISLPEGMGPGESGQPPPAC, the protein stability index amounted to 1.44.
SVICLSLPEGMGPGESGQPPPAC: the protein stability index stood at 1.66.
SVICSSLPEGMGPGESGQPPPAC: the protein stability index turned out to be 2.65.
As to SVICESLPEGMGPGESGQPPPAC, the protein stability index amounted to 2.46.
Regarding SVICGSLPEGMGPGESGQPPPAC, the protein stability index amounted to 2.09.
As to SVICASLPEGMGPGESGQPPPAC, the protein stability index was 1.88.
For the variant SVICPSLPEGMGPGESGQPPPAC, the protein stability index came to 2.59.
For SVICTSLPEGMGPGESGQPPPAC, the protein stability index was found to be 2.1.
SVICHSLPEGMGPGESGQPPPAC: the protein stability index came out at 2.73.
For the variant SVICYSLPEGMGPGESGQPPPAC, the protein stability index came out at 1.46.
As to GVICRSLPEGMGPGESGQPPPAC, the protein stability index came out at 2.23.
Take HVICRSLPEGMGPGESGQPPPAC: the protein stability index is 1.98.
As for EVICRSLPEGMGPGESGQPPPAC, the figure is 3.06.
Turning to NVICRSLPEGMGPGESGQPPPAC, the protein stability index came out at 1.63.
With DVICRSLPEGMGPGESGQPPPAC, the protein stability index stood at 1.87.
Take IVICRSLPEGMGPGESGQPPPAC: the protein stability index was found to be 3.78.
Regarding TVICRSLPEGMGPGESGQPPPAC, the protein stability index came to 2.2.
As to MVICRSLPEGMGPGESGQPPPAC, the protein stability index worked out at 1.47.
On to PVICRSLPEGMGPGESGQPPPAC, for which the protein stability index amounted to 2.23.
With RVICRSLPEGMGPGESGQPPPAC, the protein stability index stood at 1.39.
Take SVICRSLPIGMGPGESGQPPPAC: the protein stability index is 1.99.
As for SVICRSLPYGMGPGESGQPPPAC, the figure is 1.85; as for SVICRSLPWGMGPGESGQPPPAC, 1.68.
Take SVICRSLPSGMGPGESGQPPPAC: the protein stability index was determined as 1.5.
On to SVICRSLPRGMGPGESGQPPPAC, for which the protein stability index turned out to be 1.91.
With SVICRSLPMGMGPGESGQPPPAC, the protein stability index is 1.55.
As to SVICRSLPDGMGPGESGQPPPAC, the protein stability index is 2.97.
In the case of SVICRSLPLGMGPGESGQPPPAC, the protein stability index was determined as 1.23.
As to SVICRSLPHGMGPGESGQPPPAC, the protein stability index came out at 1.77.
Regarding SVICRSLPKGMGPGESGQPPPAC, the protein stability index came to 1.7.
On to SVICRSLPNGMGPGESGQPPPAC, for which the protein stability index was 1.93.
Consider SVICRSLPTGMGPGESGQPPPAC, for which the protein stability index came to 1.7.
Regarding SVICRSLPGGMGPGESGQPPPAC, the protein stability index stood at 2.54.
Take SVICRSLPFGMGPGESGQPPPAC: the protein stability index came to 1.86.
For the variant SVICRSLPQGMGPGESGQPPPAC, the protein stability index stood at 1.83.
For the variant SVICRSLPCGMGPGESGQPPPAC, the protein stability index was found to be 1.02.
As for SVICRSLPEKMGPGESGQPPPAC, the figure is 1.91.
The same measure for SVICRSLPEIMGPGESGQPPPAC: 1.95; for SVICRSLPEMMGPGESGQPPPAC: 3.27.
For the variant SVICRSLPECMGPGESGQPPPAC, the protein stability index stood at 1.95.
On to SVICRSLPELMGPGESGQPPPAC, for which the protein stability index came out at 1.51.
SVICRSLPEAMGPGESGQPPPAC: the protein stability index was 2.59.
As for SVICRSLPENMGPGESGQPPPAC, the protein stability index amounted to 1.5.
The same measure for SVICRSLPEDMGPGESGQPPPAC: 2.29.
On to SVICRSLPERMGPGESGQPPPAC, for which the protein stability index was found to be 1.76.
As to SVICRSLPETMGPGESGQPPPAC, the protein stability index stood at 1.03.
As for SVICRSLPEPMGPGESGQPPPAC, the protein stability index came out at 1.88.
On to SVICRSLPEYMGPGESGQPPPAC, for which the protein stability index was found to be 1.91.
The same measure for SVICRSLPESMGPGESGQPPPAC: 3.04; for SVICRSLPEEMGPGESGQPPPAC: 1.91.
As for SVICRSLPEFMGPGESGQPPPAC, the figure is 1.89; as for SVSCRSLPEGMGPGESGQPPPAC, 2.51; as for SVHCRSLPEGMGPGESGQPPPAC, 3.61.
Regarding SVMCRSLPEGMGPGESGQPPPAC, the protein stability index was found to be 1.43.
SVQCRSLPEGMGPGESGQPPPAC: the protein stability index was found to be 1.49.
Regarding SVECRSLPEGMGPGESGQPPPAC, the protein stability index stood at 2.88.
As for SVNCRSLPEGMGPGESGQPPPAC, the figure is 2.23; as for SVFCRSLPEGMGPGESGQPPPAC, 1.66.
As for SVVCRSLPEGMGPGESGQPPPAC, the figure is 1.84.
On to SVRCRSLPEGMGPGESGQPPPAC, for which the protein stability index stood at 2.64.
SVLCRSLPEGMGPGESGQPPPAC: the protein stability index is 1.6.
Consider SVACRSLPEGMGPGESGQPPPAC, for which the protein stability index was 2.19.
Turning to SVYCRSLPEGMGPGESGQPPPAC, the protein stability index worked out at 1.62.
Consider SVKCRSLPEGMGPGESGQPPPAC, for which the protein stability index is 1.65.
The same measure for SVPCRSLPEGMGPGESGQPPPAC: 2.4; for SVTCRSLPEGMGPGESGQPPPAC: 1.92; for SVINRSLPEGMGPGESGQPPPAC: 2.24.
With SVIKRSLPEGMGPGESGQPPPAC, the protein stability index is 1.37.
SVILRSLPEGMGPGESGQPPPAC: the protein stability index was found to be 2.03.
As for SVIDRSLPEGMGPGESGQPPPAC, the figure is 1.58.
SVIMRSLPEGMGPGESGQPPPAC: the protein stability index was found to be 1.75.
The same measure for SVIARSLPEGMGPGESGQPPPAC: 3.06.
Turning to SVIQRSLPEGMGPGESGQPPPAC, the protein stability index was determined as 2.83.
As to SVIHRSLPEGMGPGESGQPPPAC, the protein stability index is 2.29.
The same measure for SVIRRSLPEGMGPGESGQPPPAC: 1.72; for SVISRSLPEGMGPGESGQPPPAC: 1.82.
Turning to SVITRSLPEGMGPGESGQPPPAC, the protein stability index is 1.62.
For the variant SVIWRSLPEGMGPGESGQPPPAC, the protein stability index was 2.62.
On to SVIIRSLPEGMGPGESGQPPPAC, for which the protein stability index came to 2.88.
Consider SVIPRSLPEGMGPGESGQPPPAC, for which the protein stability index came out at 2.4.
Take SVIYRSLPEGMGPGESGQPPPAC: the protein stability index is 1.47.
SVIVRSLPEGMGPGESGQPPPAC: the protein stability index is 1.63.
The same measure for SVIFRSLPEGMGPGESGQPPPAC: 1.61; for SVIGRSLPEGMGPGESGQPPPAC: 1.79.
Regarding SVICRSLPEGDGPGESGQPPPAC, the protein stability index was found to be 4.2.
For the variant SVICRSLPEGYGPGESGQPPPAC, the protein stability index stood at 2.52.
As for SVICRSLPEGSGPGESGQPPPAC, the figure is 2.23.
Turning to SVICRSLPEGRGPGESGQPPPAC, the protein stability index amounted to 2.29.
The same measure for SVICRSLPEGHGPGESGQPPPAC: 1.98; for SVICRSLPEGEGPGESGQPPPAC: 3.08.
